The text below walks through data of patent US20210230279A1.

Assay [1] has as its target recombinant human integrin αvβ6 (human) (UniProt P18564). Kind of assay: blocking of adhesion (A590) of Cho cells expressing GARP/LTGFB1 to immobilized αvβ6; antibody concentration varied; unit taken from the axis log[Agonist], (ug/ml).
For assay [2] the target is unchanged.
The target is the same in assay [3]. The assay can be described thus: competition of 3G9 with RGD3 for binding to αvβ6 (sheet title); y axis 'Relative Inhibition of avb6 binding to TGFb3 peptide'; signal falls from about 1.03 to about 0.04 at log 4.

Sequence of recombinant human integrin αvβ6 (human) (chain, as listed by the source limits assumed, chain 1 of 2): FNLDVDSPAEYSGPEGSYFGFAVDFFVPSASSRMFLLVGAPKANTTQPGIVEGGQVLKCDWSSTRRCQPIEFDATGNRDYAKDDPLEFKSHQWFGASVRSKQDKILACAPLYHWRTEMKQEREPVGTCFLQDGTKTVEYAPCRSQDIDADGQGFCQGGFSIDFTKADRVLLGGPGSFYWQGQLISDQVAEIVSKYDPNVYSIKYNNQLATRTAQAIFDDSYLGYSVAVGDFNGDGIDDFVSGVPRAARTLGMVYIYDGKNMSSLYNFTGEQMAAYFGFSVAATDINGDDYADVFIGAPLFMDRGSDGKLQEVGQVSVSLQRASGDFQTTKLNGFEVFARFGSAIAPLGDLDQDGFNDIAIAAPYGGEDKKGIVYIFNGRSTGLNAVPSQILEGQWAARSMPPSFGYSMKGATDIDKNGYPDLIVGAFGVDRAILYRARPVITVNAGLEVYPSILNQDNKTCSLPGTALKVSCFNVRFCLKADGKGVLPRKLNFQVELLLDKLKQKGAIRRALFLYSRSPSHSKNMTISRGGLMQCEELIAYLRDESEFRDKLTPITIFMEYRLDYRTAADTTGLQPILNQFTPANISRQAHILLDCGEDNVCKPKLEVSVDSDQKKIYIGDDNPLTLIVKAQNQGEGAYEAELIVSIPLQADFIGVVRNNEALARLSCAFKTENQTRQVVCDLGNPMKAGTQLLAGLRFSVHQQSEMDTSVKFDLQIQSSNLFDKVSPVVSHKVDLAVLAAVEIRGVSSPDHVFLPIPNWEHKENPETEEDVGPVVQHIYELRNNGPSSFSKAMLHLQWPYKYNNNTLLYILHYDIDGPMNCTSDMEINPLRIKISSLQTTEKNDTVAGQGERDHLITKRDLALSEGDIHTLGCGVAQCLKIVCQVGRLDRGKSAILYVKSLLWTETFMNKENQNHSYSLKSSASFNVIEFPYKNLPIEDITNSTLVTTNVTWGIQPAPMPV
Sequence of recombinant human integrin αvβ6 (human) (P18564 22-707 limits assumed, chain 2 of 2): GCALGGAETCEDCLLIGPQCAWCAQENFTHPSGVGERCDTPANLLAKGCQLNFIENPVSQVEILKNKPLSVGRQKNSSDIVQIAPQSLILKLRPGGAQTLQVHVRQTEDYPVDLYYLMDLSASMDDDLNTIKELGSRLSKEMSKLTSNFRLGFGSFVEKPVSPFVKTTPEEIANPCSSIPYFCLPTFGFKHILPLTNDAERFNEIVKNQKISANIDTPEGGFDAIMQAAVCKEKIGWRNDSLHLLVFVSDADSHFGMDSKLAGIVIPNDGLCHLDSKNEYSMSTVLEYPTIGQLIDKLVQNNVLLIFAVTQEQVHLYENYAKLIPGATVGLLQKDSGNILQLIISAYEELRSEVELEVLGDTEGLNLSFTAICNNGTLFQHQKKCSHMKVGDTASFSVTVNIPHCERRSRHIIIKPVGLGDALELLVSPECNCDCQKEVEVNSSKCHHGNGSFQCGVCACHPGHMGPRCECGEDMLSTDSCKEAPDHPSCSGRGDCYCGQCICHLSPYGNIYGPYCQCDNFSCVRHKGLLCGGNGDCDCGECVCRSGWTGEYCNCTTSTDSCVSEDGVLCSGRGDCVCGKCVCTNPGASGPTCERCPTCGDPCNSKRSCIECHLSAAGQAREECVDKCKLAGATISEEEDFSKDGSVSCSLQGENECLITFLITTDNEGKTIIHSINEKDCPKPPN

As for Mab 3G9 (anti-β6) (antibody), the 50% effective concentration (EC50) in assay [1] was found to be 0.834 µg/mL. Further, the EC50 of inhibition of TGF-β activation (TMLC luciferase reporter) of GARP/LTGFB1 Cho cells on immobilized αvβ6; unit from the axis in assay [2] was determined as 0.922 µg/mL. In addition, the LogEC50 (Log10 (ng/ml)) in assay [3] came to 2.93.
